# Assays:
# [1] = target: HLA-B*46:01; test: IEDB peptide-MHC binding, purified MHC/direct/fluorescence; filed as Kd, often an IC50 or EC50 that approximates it; ≥ and ≤ were set here for values at or beyond the usual limits of such assays
# [2] = target: HLA-B*27:05; test: as above
# [3] = target: HLA-B*44:02; test: as above; conditions: source organism: Yellow fever virus strain Ghana/Asibi/1927
# [4] = target: HLA-B*07:02; test: as above
# [5] = target: HLA-A*31:01; test: as above
# [6] = target: HLA-A*01:01; test: as above
# [7] = target: HLA-B*15:01; test: as above
# [8] = target: HLA-B*48:01; test: as above
# [9] = target: HLA-B*57:01; test: as above
# [10] = target: HLA-B*08:02; test: as above; conditions: source organism: Yellow fever virus
# [11] = target: HLA-C*15:02; test: as above
# [12] = target: HLA-B*51:01; test: IEDB peptide-MHC binding, purified MHC/competitive/fluorescence; filed as Kd, often an IC50 or EC50 that approximates it; ≥ and ≤ were set here for values at or beyond the usual limits of such assays
# [13] = target: HLA-B*35:01; test: as above; conditions: source organism: Yersinia pestis Nepal516
# [14] = target: HLA-B*39:01; test: as above
# [15] = target: HLA-A*02:01; test: as above
# [16] = target: HLA-B*15:01; test: as above
# [17] = target: HLA-C*12:03; test: IEDB peptide-MHC binding, purified MHC/direct/fluorescence; filed as Kd, often an IC50 or EC50 that approximates it; ≥ and ≤ were set here for values at or beyond the usual limits of such assays; conditions: source organism: Yersinia pestis Nepal516
# [18] = target: HLA-C*07:02; test: as above
# [19] = target: HLA-C*05:01; test: as above; conditions: source organism: Yersinia pestis Nepal516
# [20] = target: HLA-C*03:03; test: as above
# [21] = target: HLA-B*08:01; test: as above; conditions: source organism: Vibrio cholerae V52
# [22] = target: HLA-A*26:01; test: IEDB peptide-MHC binding, purified MHC/competitive/fluorescence; filed as Kd, often an IC50 or EC50 that approximates it; ≥ and ≤ were set here for values at or beyond the usual limits of such assays
# [23] = target: HLA-A*68:02; test: as above; conditions: source organism: Vibrio parahaemolyticus RIMD 2210633
# [24] = target: HLA-B*46:01; test: as above; conditions: source organism: Vibrio parahaemolyticus RIMD 2210633
# [25] = target: HLA-B*18:01; test: as above; conditions: source organism: Vibrio parahaemolyticus RIMD 2210633
# [26] = target: HLA-A*02:12; test: as above; conditions: source organism: Vibrio parahaemolyticus RIMD 2210633
# [27] = target: HLA-A*29:02; test: as above; conditions: source organism: Vibrio parahaemolyticus RIMD 2210633
# [28] = target: HLA-A*02:19; test: as above; conditions: source organism: Vibrio parahaemolyticus RIMD 2210633
# [29] = target: HLA-B*27:03; test: as above; conditions: source organism: Vibrio parahaemolyticus RIMD 2210633
# [30] = target: HLA-B*57:01; test: as above; conditions: source organism: Vibrio parahaemolyticus RIMD 2210633
# [31] = target: HLA-A*02:03; test: as above
# [32] = target: HLA-A*03:01; test: as above; conditions: source organism: Vibrio parahaemolyticus RIMD 2210633
# [33] = target: HLA-B*08:01; test: as above
# [34] = target: HLA-B*58:01; test: IEDB peptide-MHC binding, purified MHC/direct/fluorescence; filed as Kd, often an IC50 or EC50 that approximates it; ≥ and ≤ were set here for values at or beyond the usual limits of such assays
# [35] = target: HLA-B*18:01; test: as above
# [36] = target: HLA-C*14:02; test: as above; conditions: source organism: Burkholderia mallei SAVP1
# [37] = target: HLA-B*15:42; test: IEDB peptide-MHC binding, purified MHC/competitive/fluorescence; filed as Kd, often an IC50 or EC50 that approximates it; ≥ and ≤ were set here for values at or beyond the usual limits of such assays; conditions: source organism: Vaccinia virus Copenhagen
# [38] = target: HLA-B*45:06; test: as above; conditions: source organism: Vaccinia virus Copenhagen
# [39] = target: HLA-B*83:01; test: as above; conditions: source organism: Vaccinia virus Copenhagen
# [40] = target: HLA-A*02:06; test: as above; conditions: source organism: Vaccinia virus Copenhagen
# [41] = target: HLA-A*69:01; test: as above; conditions: source organism: Vaccinia virus Copenhagen
# [42] = target: HLA-B*51:01; test: IEDB peptide-MHC binding, purified MHC/direct/fluorescence; filed as Kd, often an IC50 or EC50 that approximates it; ≥ and ≤ were set here for values at or beyond the usual limits of such assays; conditions: source organism: Cowpox virus
# [43] = target: HLA-A*11:01; test: as above; conditions: source organism: Cowpox virus
# [44] = target: HLA-B*40:01; test: as above; conditions: source organism: Cowpox virus
# [45] = target: HLA-B*15:17; test: as above; conditions: source organism: Cowpox virus
# [46] = target: HLA-A*03:01; test: as above; conditions: source organism: Cowpox virus
# [47] = source organism: Yellow fever virus strain Ghana/Asibi/1927
# [48] = source organism: Yersinia pestis Nepal516
# [49] = source organism: Vibrio parahaemolyticus RIMD 2210633
# [50] = source organism: Salmonella enterica subsp. enterica serovar Typhi
# [51] = source organism: Chelativorans sp. BNC1
# [52] = source organism: Vaccinia virus Copenhagen
sequence,measurement,setting,value
AIHPFALLL,Kd,[1]; [47],≥ 20 µM
same,Kd,[2]; [47],≥ 20 µM
same,Kd,[3],≥ 20 µM
same,Kd,[4]; [47],≥ 20 µM
same,Kd,[5]; [47],≥ 20 µM
same,Kd,[6]; [47],≥ 20 µM
same,Kd,[7]; [47],≥ 20 µM
same,Kd,[8]; [47],≥ 20 µM
same,Kd,[9]; [47],≥ 20 µM
same,Kd,[10],≥ 20 µM
same,Kd,[11]; source organism: Yellow fever virus,0.099 µM
FAFKLSFAI,Kd,[12]; [48],≥ 20 µM
same,Kd,[13],0.065 µM
same,Kd,[14]; [48],3 µM
same,Kd,[15]; [48],1.01 µM
same,Kd,[16]; [48],≥ 20 µM
same,Kd,[17],≤ 0.001 µM
same,Kd,[18]; [48],≥ 20 µM
same,Kd,[19],≥ 20 µM
same,Kd,[20]; [48],0.004 µM
FIRWRFYLL,Kd,[21],0.216 µM
same,Kd,[18]; source organism: Vibrio cholerae 2740-80,4.08 µM
HVIYFTAFT,Kd,[22]; [49],≥ 20 µM
same,Kd,[12]; [49],≥ 20 µM
same,Kd,[23],0.0577 µM
same,Kd,[24],≥ 20 µM
same,Kd,[14]; [49],≥ 20 µM
same,Kd,[25],≥ 20 µM
same,Kd,[15]; [49],≥ 20 µM
same,Kd,[26],≥ 20 µM
same,Kd,[27],≥ 20 µM
same,Kd,[28],≥ 20 µM
same,Kd,[29],≥ 20 µM
same,Kd,[16]; [49],≥ 20 µM
same,Kd,[30],≥ 20 µM
same,Kd,[31]; [49],≥ 20 µM
same,Kd,[32],≥ 20 µM
MMLSPLVAL,Kd,[14]; [50],0.0008 µM
same,Kd,[15]; [50],0.0002 µM
same,Kd,[33]; [50],0.96 µM
same,Kd,[18]; source organism: Salmonella enterica subsp. enterica serovar Typhi str. CT18,0.858 µM
WALDVPMYF,Kd,[9]; source organism: Brucella suis 1330,0.034 µM
same,Kd,[34]; source organism: Aurantimonas manganoxydans,0.0036 µM
same,Kd,[11]; [51],0.179 µM
same,Kd,[20]; [51],≤ 0.001 µM
WWLEYTASF,Kd,[35]; source organism: Burkholderia mallei ATCC 23344,0.068 µM
same,Kd,[36],0.077 µM
same,Kd,[11]; source organism: Burkholderia mallei SAVP1,≥ 20 µM
YPPPRYITV,Kd,[22]; [52],≥ 20 µM
same,Kd,[14]; [52],3.58 µM
same,Kd,[37],≥ 5 µM
same,Kd,[15]; [52],0.106 µM
same,Kd,[38],≥ 5 µM
same,Kd,[33]; [52],0.543 µM
same,Kd,[39],≥ 5 µM
same,Kd,[40],0.0114 µM
same,Kd,[41],0.0681 µM
same,Kd,[31]; [52],0.239 µM
same,Kd,[42],0.179 µM
same,Kd,[1]; source organism: Cowpox virus,≥ 20 µM
same,Kd,[2]; source organism: Cowpox virus,≥ 20 µM
same,Kd,[35]; source organism: Cowpox virus,≥ 20 µM
same,Kd,[43],≥ 20 µM
same,Kd,[44],≥ 20 µM
same,Kd,[4]; source organism: Cowpox virus,0.113 µM
same,Kd,[5]; source organism: Cowpox virus,≥ 20 µM
same,Kd,[6]; source organism: Cowpox virus,≥ 20 µM
same,Kd,[7]; source organism: Cowpox virus,≥ 20 µM
same,Kd,[8]; source organism: Cowpox virus,≥ 20 µM
same,Kd,[9]; source organism: Cowpox virus,≥ 20 µM
same,Kd,[45],≥ 20 µM
same,Kd,[34]; source organism: Cowpox virus,≥ 20 µM
same,Kd,[46],≥ 20 µM
